{"source": "paper PMC3727927", "about": "(Molecular Biology of the Cell, 2013)", "proteins": {"B1": {"name": "Bacillus subtilis MreB A277Q K305D double mutant, Strep-tagged (natural protein)", "chain": "MFGIGARDLGIDLGTANTLVFVKGKGIVVREPSVVALQTDTKSIVAVGNDAKNMIGRTPGNVVALRPMKDGVIADYETTATMMKYYINQAIKNKGMFARKPYVMVCVPSGITAVEERAVIDATRQAGARDAYPIEEPFAAAIGANLPVWEPTGSMVVDIGGGTTEVAIISLGGIVTSQSIRVAGDEMDDAIINYIRKTYNLMIGDRTAEAIKMEIGSAEAPEESDNMEIRGRDLLTGLPKTIEITGKEISNALRDTVSTIVEAVKSTLEKTPPELAQDIMDRGIVLTGGGALLRNLDKVISEETDMPVLIAEDPLDCVAIGTGKALEHIHLFKGKTR"}}, "molecular_target": "the molecule itself", "test": "light scattering", "data": [{"protein": "B1", "values": [{"measurement": "binding result", "value": "binds"}]}]}
